Data published in patent publication US20250277054A1.

Assays:
[1] = biological target: human PSMA on human prostate cancer cells (LNCaP, C4-2, 22Rv1) (human) (UniProt Q04609); assay: flow cytometry on 22Rv1 cells (PSMA low)
[2] = biological target: human PSMA on human prostate cancer cells (LNCaP, C4-2, 22Rv1) (human) (UniProt Q04609); assay: flow cytometry on LNCaP cells (PSMA high)
[3] = biological target: Human PSMA.ECD.His (Acro) (human) (UniProt Q04609); assay: ELISA, coated human PSMA protein (His tag)
[4] = biological target: full-length cynomolgus PSMA on Flp-in CHO cells (WBP3xx042-FlpinCHO.cPro1.B7) (cynomolgus); assay: flow cytometry on FlpInCHO-cyno PSMA cells
[5] = biological target: Mouse PSMA.ECD.His (Acro) (mouse) (UniProt O35409); assay: ELISA, coated mouse PSMA protein (His tag)
[6] = biological target: human PSMA on human prostate cancer cells (LNCaP, C4-2, 22Rv1) (human) (UniProt Q04609); assay: flow cytometry on C4-2 cells (PSMA high)
[7] = biological target: Cyno PSMA.ECD.His (Acro) (cynomolgus); assay: ELISA, coated cynomolgus PSMA protein (His tag)
[8] = biological target: Biotinylated Human PSMA/FOLH1 Protein, His, Avitag (human) (UniProt Q04609); assay: SPR (Biacore 8K), biotinylated human PSMA captured on streptavidin chip, antibody injected, single-cycle, 1:1 model
[9] = biological target: Human PSMA.ECD.His (Acro) (human) (UniProt Q04609); assay: ELISA, human PSMA ECD captured by anti-His antibody
[10] = biological target: human PSMA on human prostate cancer cells (LNCaP, C4-2, 22Rv1) (human) (UniProt Q04609); assay: flow cytometry on LNCaP cells
[11] = biological target: Cyno PSMA.ECD.His (Acro) (cynomolgus); assay: ELISA, cynomolgus PSMA ECD captured by anti-His antibody
[12] = biological target: Cyno PSMA.ECD.His (Acro) (cynomolgus); assay: SPR (Biacore 8K), antibody captured by anti-human IgG Fc, PSMA injected, 1:1 model
[13] = biological target: Human PSMA.ECD.His (Acro) (human) (UniProt Q04609); assay: as above
[14] = biological target: full-length cynomolgus PSMA on Flp-in CHO cells (WBP3xx042-FlpinCHO.cPro1.B7) (cynomolgus); assay: flow cytometry on cynomolgus PSMA-expressing CHO cells

Sequence of Biotinylated Human PSMA/FOLH1 Protein, His, Avitag (human) (Q04609 44-750 limits assumed): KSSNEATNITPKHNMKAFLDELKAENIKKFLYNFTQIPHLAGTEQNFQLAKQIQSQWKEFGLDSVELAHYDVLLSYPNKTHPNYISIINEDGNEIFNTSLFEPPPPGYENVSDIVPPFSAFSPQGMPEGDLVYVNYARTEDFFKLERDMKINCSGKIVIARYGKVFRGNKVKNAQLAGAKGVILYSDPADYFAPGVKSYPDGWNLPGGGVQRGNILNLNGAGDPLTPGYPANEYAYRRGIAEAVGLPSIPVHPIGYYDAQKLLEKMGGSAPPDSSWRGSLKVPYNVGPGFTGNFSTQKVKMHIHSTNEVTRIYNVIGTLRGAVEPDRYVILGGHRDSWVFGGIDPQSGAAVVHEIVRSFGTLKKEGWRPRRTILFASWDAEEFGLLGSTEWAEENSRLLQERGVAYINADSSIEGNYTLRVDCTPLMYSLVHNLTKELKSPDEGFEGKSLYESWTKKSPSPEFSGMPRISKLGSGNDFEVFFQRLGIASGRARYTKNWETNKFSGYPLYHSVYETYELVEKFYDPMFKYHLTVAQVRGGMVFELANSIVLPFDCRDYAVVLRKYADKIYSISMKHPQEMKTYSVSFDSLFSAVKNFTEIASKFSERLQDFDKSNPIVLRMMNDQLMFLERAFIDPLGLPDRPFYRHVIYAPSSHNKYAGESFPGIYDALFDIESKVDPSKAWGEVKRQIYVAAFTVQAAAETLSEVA
Sequence of Human PSMA.ECD.His (Acro) (human) (Q04609 44-750): as the sequence (Q04609 44-750 limits assumed) above
Sequence of human PSMA on human prostate cancer cells (LNCaP, C4-2, 22Rv1) (human) (Q04609 whole entry, the tested form may be a part): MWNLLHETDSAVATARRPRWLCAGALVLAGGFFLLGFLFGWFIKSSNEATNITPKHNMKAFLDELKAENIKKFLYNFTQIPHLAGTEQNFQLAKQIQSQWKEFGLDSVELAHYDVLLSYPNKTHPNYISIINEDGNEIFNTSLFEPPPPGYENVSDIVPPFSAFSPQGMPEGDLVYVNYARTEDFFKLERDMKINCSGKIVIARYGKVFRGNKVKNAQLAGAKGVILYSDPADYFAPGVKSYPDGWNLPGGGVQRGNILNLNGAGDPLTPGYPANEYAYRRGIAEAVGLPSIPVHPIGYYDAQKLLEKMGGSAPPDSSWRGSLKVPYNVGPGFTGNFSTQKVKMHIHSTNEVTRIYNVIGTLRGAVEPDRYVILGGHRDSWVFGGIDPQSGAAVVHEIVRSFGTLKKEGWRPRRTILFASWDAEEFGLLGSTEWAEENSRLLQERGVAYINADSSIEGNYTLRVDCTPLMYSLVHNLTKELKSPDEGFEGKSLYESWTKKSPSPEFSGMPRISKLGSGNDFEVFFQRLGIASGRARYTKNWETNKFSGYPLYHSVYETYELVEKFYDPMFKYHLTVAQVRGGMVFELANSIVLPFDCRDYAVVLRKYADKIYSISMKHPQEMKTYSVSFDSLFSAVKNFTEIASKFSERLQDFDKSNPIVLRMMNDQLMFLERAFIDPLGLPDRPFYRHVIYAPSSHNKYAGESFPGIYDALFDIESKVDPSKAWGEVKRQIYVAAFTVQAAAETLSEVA
Sequence of Mouse PSMA.ECD.His (Acro) (mouse) (O35409 45-752): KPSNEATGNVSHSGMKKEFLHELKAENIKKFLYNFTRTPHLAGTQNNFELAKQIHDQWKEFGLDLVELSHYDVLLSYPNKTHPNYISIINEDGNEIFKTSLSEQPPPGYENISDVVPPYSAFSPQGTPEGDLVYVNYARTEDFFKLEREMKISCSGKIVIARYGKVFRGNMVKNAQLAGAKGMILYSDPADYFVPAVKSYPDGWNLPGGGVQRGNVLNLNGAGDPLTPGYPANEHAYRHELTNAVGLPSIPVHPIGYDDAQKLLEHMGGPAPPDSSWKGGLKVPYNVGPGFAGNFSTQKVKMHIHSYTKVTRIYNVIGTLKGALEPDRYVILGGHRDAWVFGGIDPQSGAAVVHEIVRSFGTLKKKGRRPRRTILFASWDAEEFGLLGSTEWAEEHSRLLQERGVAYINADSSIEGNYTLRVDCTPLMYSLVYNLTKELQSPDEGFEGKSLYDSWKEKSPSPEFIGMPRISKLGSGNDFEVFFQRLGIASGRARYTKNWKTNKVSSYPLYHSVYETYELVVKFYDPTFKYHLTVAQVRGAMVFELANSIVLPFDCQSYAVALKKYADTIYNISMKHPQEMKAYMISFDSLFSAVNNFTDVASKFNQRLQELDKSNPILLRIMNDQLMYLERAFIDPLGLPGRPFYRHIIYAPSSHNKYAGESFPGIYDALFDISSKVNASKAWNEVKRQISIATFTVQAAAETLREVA

| Substance | EC50 [1] [nM] | Max MFI [1] [MFI] | EC50 [2] [nM] | Max MFI [2] [MFI] | Max OD450-540 [3] [OD450-540] | Max MFI [4] [MFI] | Max OD450-540 [5] [OD450-540] | EC50 [6] [nM] | Max MFI [6] [MFI] | Max OD450-540 [7] [OD450-540] | Kd [8] [nM] | Max OD450 [9] [OD450] | Max MFI [10] [MFI] | EC50 [11] [nM] | Max OD450 [11] [OD450] | EC50 [14] [nM] | Max MFI [14] [MFI] | also measured |
| --- | --- | --- | --- | --- | --- | --- | --- | --- | --- | --- | --- | --- | --- | --- | --- | --- | --- | --- |
| AMG 160 (BMK2) (bispecific antibody) | 46.1 | 5910 | 30.8 | 19100 | 3.52 | 62900 | 0.09 | 34.4 | 34200 | 3.57 | 36.7 | – | – | – | – | – | – | EC50 [3]: 0.22 nM; EC50 [4]: 55.8 nM; EC50 [7]: 0.48 nM |
| AMG 340/TNB-585 (BMK1) (bispecific antibody) | 174 | 5280 | 55.7 | 16300 | – | 2870 | 0.05 | 35.3 | 34700 | – | 32.3 | – | – | – | – | – | – | koff [8]: 0.00378 s⁻¹; kon [8]: 117000 M⁻¹ s⁻¹ |
| J591 antibody (W3XX042-BMK1) | – | – | – | – | – | – | – | – | – | – | – | 2.34 | 3590 | 0.011 | 2.79 | 3.63 | 93300 | EC50 [9]: 0.077 nM; EC50 [10]: 0.48 nM; Kd [12]: 1.82 nM; koff [12]: 0.000192 s⁻¹; Kd [13]: 1.27 nM |

The next lines start with results.

| EC50 [1] [nM] | Max MFI [1] [MFI] | EC50 [2] [nM] | Max MFI [2] [MFI] | Max OD450-540 [3] [OD450-540] | Max MFI [4] [MFI] | Max OD450-540 [5] [OD450-540] | EC50 [6] [nM] | Max MFI [6] [MFI] | Max OD450-540 [7] [OD450-540] | Kd [8] [nM] | Max OD450 [9] [OD450] | Max MFI [10] [MFI] | EC50 [11] [nM] | Max OD450 [11] [OD450] | EC50 [14] [nM] | Max MFI [14] [MFI] | Substance | also measured |
| --- | --- | --- | --- | --- | --- | --- | --- | --- | --- | --- | --- | --- | --- | --- | --- | --- | --- | --- |
| – | – | – | – | – | – | – | – | – | – | – | 0.263 | 47.7 | > 10 | 0.258 | > 100 | 34.8 | human IgG isotype antibody (negative control) | EC50 [5]: > 100 nM; Max OD450 [5]: 0.093 OD450 |
| – | 372 | – | 181 | 0.04 | 19.9 | 0.09 | – | 138 | 0.04 | – | – | – | – | – | – | – | isotype hIgG4 control (antibody) | – |
